Measurements published in patent US11278600B2, “Human alpha-galactosidase variants” (Codexis, Inc., priority 2014, dated 2022).

What was measured:
Type in all cases: biochemical
[1] = HTP-analysis of supernatants pretreated with bovine serum (MUGal hydrolysis); conditions: activity of the variant/activity of Rd3BB (SEQ ID NO: 13), yeast culture supernatant
Procedure, shortened: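 Yeast INVSc1 culture supernatants containing secreted GLA variants were mixed with bovine serum (20:80) and held 1 h at 37° C. Serum-treated samples then reacted with MUGal (4 mM stock) in citrate/McIlvaine buffer (pH 4.3/4.8) for 180 min at 37° C., were quenched with sodium carbonate, and read by fluorescence (Ex 355, Em 448 nm).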

[2] = HTP-analysis of supernatants pretreated with acid (MUGal hydrolysis); conditions: challenge at pH 4.0; activity of the variant/activity of Rd3BB (SEQ ID NO: 13); yeast culture supernatant
Procedure, shortened: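 Supernatants from INVSc1 yeast secreting GLA variants were challenged at 37° C. for 1-3 h in McIlvaine buffer at pH 3.3-4.3. Residual activity was then measured on 4 mM MUGal substrate stock at pH 4.8 with citrate buffer pH 4.3, over 30-180 min at 37° C. Reactions were quenched with sodium carbonate and read by fluorescence (Ex 355/Em 448 nm).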

[3] = HTP-analysis of supernatants pretreated with base (MUGal hydrolysis); conditions: challenge at pH 8.2; activity of the variant/activity of Rd3BB (SEQ ID NO: 13); yeast culture supernatant
Procedure, shortened: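 GLA variants were secreted by transformed INVSc1 yeast grown 66-84 h at 30° C. Supernatants were exposed to neutral-to-basic buffers (pH 7.0-9.7) at 37° C for 1-18 h, then assayed with MUGal in acidic citrate/McIlvaine buffer, with fluorescence read after quenching.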

[4] = HTP-analysis of yeast culture supernatants, no challenge (MUGal hydrolysis); conditions: activity of the variant/activity of Rd3BB (SEQ ID NO: 13), yeast culture supernatant
Procedure, shortened: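 Activity read as 4-methylumbelliferyl α-D-galactopyranoside hydrolysis: fluorescence (355/448 nm) after sodium carbonate stop, following 30-180 min at 37° C with 2 mM MUGal stock at pH 4.6–4.8. Enzyme source is unchallenged culture supernatant of INVSc1 yeast expressing GLA variants, grown 66-84 h at 30° C.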

Molecule	Relative Activity of GLA Variants After Challenge with Serum [1]	Relative Activity of GLA Variants After Challenge at pH 4.0 [2]	Relative Activity of GLA Variants After Challenge at pH 8.2 [3]	Relative Activity of GLA Variants After No Challenge (NC) [4]
345 (protein, Synthetic Polypeptide sequence of Variant No. 345 of mature Human GLA) LDNGLARTPTMGWLHWERFMCNLDCQEEPDSCISEKLFMEMAERMVSEGWKDAGYEYLCIDDCWMAPQRDSEGRLQADPQRFPHGIRQLANYVHSIGLKLGIYADVGNKTCAGFPGSFGYYDIDAQTFADWGVDLLKFDGCYCDSLENLADGYKHMSLALNRTGRSIVYSCEWPLYMWPFQKPNYTEIRQYCNHWRNFADIDDSWASIKSILDWTSRNPERIVDVAGPGGWNDPDMLVIGNFGLSWDQQVTQKALWAIMAAPLFMFNDLRHISPQAKALLQDKEVIAINPDPFGKQGYQLRKGDNFEGWERPLFGLAWAVAIINRQEIGGPRSYTIPVASLGEGVACNPACFITQLLPVKRKLGFYNWTSRLKSHINPTGTVLLQLENTMQMSLKDLL	+ (+ = 0.5 to 1.5 relative activity over Rd3BB (SEQ ID NO: 13))	++ (++ = >1.5 to 2.5 relative activity over Rd3BB (SEQ ID NO: 13))	+++ (+++ = >2.5 relative activity over Rd3BB (SEQ ID NO: 13))	+ (+ = 0.5 to 1.5 relative activity over Rd3BB (SEQ ID NO: 13))
344 (protein, Synthetic Polypeptide sequence of Variant No. 344 of mature Human GLA) LDNGLARTPTMGWLHWERFMCNLDCQEEPDSCISEKLFMEMAERMVSEGWKDAGYEYLCIDDCWMAPQRDSEGRLQADPQRFPHGIRQLANYVHSIGLKLGIYADVGNKTCAGFPGSFGYYDIDAQTFADWGVDLLKFDGCYCDSLENLADGYKHMSLALNRTGRSIVYSCEWPLYMWPFQKPNYTEIRQYCNHWRNFADIDDSWASIKSILDWTSRNQERIVDVAGPGGWNDPDMLVIGNFGLSWDQQVTQMALWAIMAAPLFMSNDLRHISPQAKALLQDKDVIAINQDPLGKQGYQLRKGDNFEVWERPLSGLAWAVAIINRQEIGGPRSYTIAVASLGKGVACNPACFITQLLPVKRQLGFYNWTSRLKSHINPTGTVLLQLENTMQMSLKDLL	++ (++ = >1.5 to 2.5 relative activity over Rd3BB (SEQ ID NO: 13))	+ (+ = 0.5 to 1.5 relative activity over Rd3BB (SEQ ID NO: 13))	+ (+ = 0.5 to 1.5 relative activity over Rd3BB (SEQ ID NO: 13))	+ (+ = 0.5 to 1.5 relative activity over Rd3BB (SEQ ID NO: 13))
346 (protein, Synthetic Polypeptide sequence of Variant No. 346 of mature Human GLA) LDNGLARTPTMGWLHWERFMCNLDCQEEPDSCISEKLFMEMAERMVSEGWKDAGYEYLCIDDCWMAPQRDSEGRLQADPQRFPHGIRQLANYVHSIGLKLGIYADVGNKTCAGFPGSFGYYDIDAQTFADWGVDLLKFDGCYCDSLENLADGYKHMSLALNRTGRSIVYSCEWPLYMWPFQKPNYTEIRQYCNHWRNFADIDDSWASIKSILDWTSRNQERIVDVAGPGGWNDPDMLVIGNFGLSWNQQVTQMALWAIMAAPLFMSNDLRHISPQAKALLQDKDVIAINQDPLGKQGYQLRKGDNFEVWERPLSGLAWAVAIINRQEIGGPRSYTIAVASLGKGVACNPGCFITQLLPVKRQLGFYNWSSRLKSHINPTGTVLLQLENTMQMSLKDLL	+ (+ = 0.5 to 1.5 relative activity over Rd3BB (SEQ ID NO: 13))	+ (+ = 0.5 to 1.5 relative activity over Rd3BB (SEQ ID NO: 13))	++ (++ = >1.5 to 2.5 relative activity over Rd3BB (SEQ ID NO: 13))	+ (+ = 0.5 to 1.5 relative activity over Rd3BB (SEQ ID NO: 13))
